Literature values as cited in patent publication US20240158457A1, “INTERLEUKIN-18 RECEPTOR BINDING POLYPEPTIDES AND USES THEREOF” (Medikine, Inc., priority 2022, published 2024).

Target: T1, IL-18 (Homo sapiens, UniProt Q14116)
T1 sequence (Q14116 37-193): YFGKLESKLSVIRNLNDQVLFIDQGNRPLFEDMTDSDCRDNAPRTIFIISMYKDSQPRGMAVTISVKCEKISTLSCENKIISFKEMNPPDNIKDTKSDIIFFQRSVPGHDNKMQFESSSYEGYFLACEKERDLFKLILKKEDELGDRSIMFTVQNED
Conditions: background; read-out: affinity for IL-18

B1: IL-18BP: IL-18 binding protein, decoy receptor; IL-18BP Fc fusion (Acro #ILP-H5253) (protein)
chain: TPVSQTTTAATASVRSTKDPCPSQPPVFPAAKQCPALEVTWPEVEVPLNGTLSLSCVACSRFPNFSILYWLGNGSFIEHLPGRLWEGSTSRERGSTGTQLCKALVLEQLTPALHSTNFSCVLVDPEQVVQRHVVLAQLWAGLRATLPPTQEALPSSHSSPQQQG
modifications: left off: a dimerising Fc or GST
Kd: ~0.4 nM
